{"source": "FireProtDB (doi:10.1021/bi00025a018)", "parents": {"B1": {"name": "Ribonuclease HI, P0A7Y4 (parent)", "chain": "MLKQVEIFTDGSCLGNPGPGGYGAILRYRGREKTFSAGYTRTTNNRMELMAAIVALEALKEHCEVILSTDSQYVRQGITQWIHNWKKRGWKTADKKPVKNVDLWQRLDAALGQHQIKWEWVKGHAGHPENERCDELARAAAMNPTLEDTGYQVEV"}}, "variants_of": "B1", "conditions": "Escherichia coli (strain K12), Thermal, CD, NaCl 0.1 M, reversible: yes, structure 2RN2, whole UniProt chain shown", "key": {"[1]": {"conditions": "pH 3, 50.9 °C, glycine-HCl 10 mM"}, "[2]": {"conditions": "pH 5.5, 52.5 °C, Sodium acetate 10 mM"}}}
{"variant": "H62P", "values": [{"measurement": "ddG of mutation (higher = less stable)", "setting": "[1]", "result": -1, "unit": "kcal/mol"}, {"measurement": "Tm", "setting": "pH 3, glycine-HCl 10 mM", "result": 54.3, "unit": "°C"}, {"measurement": "change of melting temperature, mutant - wild type (higher = more stable)", "setting": "pH 3, glycine-HCl 10 mM", "result": 3.4, "unit": "°C"}, {"measurement": "unfolding enthalpy (van 't Hoff)", "setting": "pH 3, glycine-HCl 10 mM", "result": 110, "unit": "kcal/mol"}, {"measurement": "ddG of mutation (higher = less stable)", "setting": "[2]", "result": -1.1, "unit": "kcal/mol"}, {"measurement": "Tm", "setting": "pH 5.5, Sodium acetate 10 mM", "result": 56.6, "unit": "°C"}, {"measurement": "change of melting temperature, mutant - wild type (higher = more stable)", "setting": "pH 5.5, Sodium acetate 10 mM", "result": 4.1, "unit": "°C"}, {"measurement": "unfolding enthalpy (van 't Hoff)", "setting": "pH 5.5, Sodium acetate 10 mM", "result": 102, "unit": "kcal/mol"}]}
{"variant": "G23A", "values": [{"measurement": "ddG of mutation (higher = less stable)", "setting": "[1]", "result": -0.7, "unit": "kcal/mol"}, {"measurement": "Tm", "setting": "pH 3, glycine-HCl 10 mM", "result": 53.2, "unit": "°C"}, {"measurement": "change of melting temperature, mutant - wild type (higher = more stable)", "setting": "pH 3, glycine-HCl 10 mM", "result": 2.3, "unit": "°C"}, {"measurement": "unfolding enthalpy (van 't Hoff)", "setting": "pH 3, glycine-HCl 10 mM", "result": 99.3, "unit": "kcal/mol"}, {"measurement": "ddG of mutation (higher = less stable)", "setting": "[2]", "result": -0.5, "unit": "kcal/mol"}, {"measurement": "Tm", "setting": "pH 5.5, Sodium acetate 10 mM", "result": 54.3, "unit": "°C"}, {"measurement": "change of melting temperature, mutant - wild type (higher = more stable)", "setting": "pH 5.5, Sodium acetate 10 mM", "result": 1.8, "unit": "°C"}, {"measurement": "unfolding enthalpy (van 't Hoff)", "setting": "pH 5.5, Sodium acetate 10 mM", "result": 91.8, "unit": "kcal/mol"}]}
{"variant": "D134H", "values": [{"measurement": "ddG of mutation (higher = less stable)", "setting": "[1]", "result": -0.5, "unit": "kcal/mol"}, {"measurement": "Tm", "setting": "pH 3, glycine-HCl 10 mM", "result": 53.6, "unit": "°C"}, {"measurement": "change of melting temperature, mutant - wild type (higher = more stable)", "setting": "pH 3, glycine-HCl 10 mM", "result": 1.7, "unit": "°C"}, {"measurement": "unfolding enthalpy (van 't Hoff)", "setting": "pH 3, glycine-HCl 10 mM", "result": 106, "unit": "kcal/mol"}, {"measurement": "ddG of mutation (higher = less stable)", "setting": "[2]", "result": -1.9, "unit": "kcal/mol"}, {"measurement": "Tm", "setting": "pH 5.5, Sodium acetate 10 mM", "result": 59.5, "unit": "°C"}, {"measurement": "change of melting temperature, mutant - wild type (higher = more stable)", "setting": "pH 5.5, Sodium acetate 10 mM", "result": 7, "unit": "°C"}, {"measurement": "unfolding enthalpy (van 't Hoff)", "setting": "pH 5.5, Sodium acetate 10 mM", "result": 107, "unit": "kcal/mol"}]}
{"variant": "V74L", "values": [{"measurement": "ddG of mutation (higher = less stable)", "setting": "[1]", "result": -1.1, "unit": "kcal/mol"}, {"measurement": "Tm", "setting": "pH 3, glycine-HCl 10 mM", "result": 54.6, "unit": "°C"}, {"measurement": "change of melting temperature, mutant - wild type (higher = more stable)", "setting": "pH 3, glycine-HCl 10 mM", "result": 3.7, "unit": "°C"}, {"measurement": "unfolding enthalpy (van 't Hoff)", "setting": "pH 3, glycine-HCl 10 mM", "result": 119, "unit": "kcal/mol"}, {"measurement": "ddG of mutation (higher = less stable)", "setting": "[2]", "result": -0.9, "unit": "kcal/mol"}, {"measurement": "Tm", "setting": "pH 5.5, Sodium acetate 10 mM", "result": 55.8, "unit": "°C"}, {"measurement": "change of melting temperature, mutant - wild type (higher = more stable)", "setting": "pH 5.5, Sodium acetate 10 mM", "result": 3.3, "unit": "°C"}, {"measurement": "unfolding enthalpy (van 't Hoff)", "setting": "pH 5.5, Sodium acetate 10 mM", "result": 91.2, "unit": "kcal/mol"}]}
